According to patent US20250215411A1, “FUSION PROTEINS AND USES THEREOF” (priority 2022, published 2025):

What was measured:
[1] = molecular target: αvβ3 integrin (Homo sapiens, UniProt P05106+P06756); conditions: cited from earlier work
[2] = molecular target: α5β1 integrin (Homo sapiens, UniProt P05556+P08648); conditions: cited from earlier work
[3] = molecular target: αvβ6 integrin (Homo sapiens, UniProt P06756+P18564); conditions: cited from earlier work
[4] = molecular target: αvβ5 integrin (Homo sapiens, UniProt P06756+P18084); conditions: cited from earlier work
Chain of αvβ5 integrin (P06756 31-1048): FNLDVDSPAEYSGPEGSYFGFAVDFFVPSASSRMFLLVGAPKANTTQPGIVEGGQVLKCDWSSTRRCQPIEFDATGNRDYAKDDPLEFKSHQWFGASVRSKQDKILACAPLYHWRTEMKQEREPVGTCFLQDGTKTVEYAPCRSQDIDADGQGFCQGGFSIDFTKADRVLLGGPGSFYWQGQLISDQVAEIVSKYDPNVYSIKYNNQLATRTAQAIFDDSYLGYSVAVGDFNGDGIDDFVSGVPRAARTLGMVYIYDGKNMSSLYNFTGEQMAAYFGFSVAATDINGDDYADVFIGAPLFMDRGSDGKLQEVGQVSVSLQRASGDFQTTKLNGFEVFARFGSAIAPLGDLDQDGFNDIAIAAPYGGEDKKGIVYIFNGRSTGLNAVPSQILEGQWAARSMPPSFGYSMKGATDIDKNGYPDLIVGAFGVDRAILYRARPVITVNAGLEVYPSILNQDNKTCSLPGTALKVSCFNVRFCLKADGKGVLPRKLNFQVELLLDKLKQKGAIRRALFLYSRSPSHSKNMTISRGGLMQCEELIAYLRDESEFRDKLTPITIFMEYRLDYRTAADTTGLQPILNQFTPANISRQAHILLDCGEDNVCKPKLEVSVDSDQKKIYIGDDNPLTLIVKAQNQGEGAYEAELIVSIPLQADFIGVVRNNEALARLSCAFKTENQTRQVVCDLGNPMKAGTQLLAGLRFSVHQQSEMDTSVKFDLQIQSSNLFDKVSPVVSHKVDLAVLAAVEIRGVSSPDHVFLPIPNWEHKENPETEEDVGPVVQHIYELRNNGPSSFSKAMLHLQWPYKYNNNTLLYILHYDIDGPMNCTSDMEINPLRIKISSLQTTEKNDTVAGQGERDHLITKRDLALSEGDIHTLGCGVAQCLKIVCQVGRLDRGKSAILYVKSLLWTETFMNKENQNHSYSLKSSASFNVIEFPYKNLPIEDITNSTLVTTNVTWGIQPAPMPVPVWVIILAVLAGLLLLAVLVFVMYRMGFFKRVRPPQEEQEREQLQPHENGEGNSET
Chain of αvβ5 integrin (P18084 24-799): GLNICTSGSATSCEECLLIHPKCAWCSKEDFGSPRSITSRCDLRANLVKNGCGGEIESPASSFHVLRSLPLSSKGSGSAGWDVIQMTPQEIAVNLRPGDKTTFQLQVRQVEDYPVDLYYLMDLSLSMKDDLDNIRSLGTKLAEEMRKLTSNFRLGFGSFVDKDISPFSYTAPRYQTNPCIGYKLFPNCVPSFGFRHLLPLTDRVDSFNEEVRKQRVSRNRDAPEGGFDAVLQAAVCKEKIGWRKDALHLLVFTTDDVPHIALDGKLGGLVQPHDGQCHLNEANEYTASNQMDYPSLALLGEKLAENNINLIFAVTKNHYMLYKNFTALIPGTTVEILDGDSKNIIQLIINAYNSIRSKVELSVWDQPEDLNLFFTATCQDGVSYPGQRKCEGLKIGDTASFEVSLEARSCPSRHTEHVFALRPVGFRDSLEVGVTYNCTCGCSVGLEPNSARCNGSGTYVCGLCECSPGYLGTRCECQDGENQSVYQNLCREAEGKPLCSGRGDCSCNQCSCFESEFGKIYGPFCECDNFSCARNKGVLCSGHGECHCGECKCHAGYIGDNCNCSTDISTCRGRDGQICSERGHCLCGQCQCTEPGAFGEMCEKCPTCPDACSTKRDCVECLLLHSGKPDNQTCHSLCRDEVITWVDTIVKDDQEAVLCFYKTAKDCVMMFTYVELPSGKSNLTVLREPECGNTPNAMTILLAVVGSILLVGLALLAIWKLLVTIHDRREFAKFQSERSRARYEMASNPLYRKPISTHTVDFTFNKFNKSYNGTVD

[5] = test system: 5637, RT112, RT4, U87, MDA-MB-468 cancer cell lines; assay: Cell viability assay (MTT), cancer cell lines; assay type: cell-based, human
Experimental: (§1) Cultured cell lines (5×10^3 cells/well) were seeded in 96 wells plates and incubated for 72 h with various amounts of RGD-SAP or CYS-SAP at 37° C., 5% CO2. Cell viability was then quantified by 3-(4,5-dimethylthiazol-2-yl)-2,5-diphenyltetrazolium bromide staining (MTT) (working solution 0.5 μg/ml). After 1 h of incubation, the supernatants were removed, the formazan crystals were dissolved with dimethyl sulfoxide and the absorbance at 570 nm was measured using a microtiter plate reader. Competitive experiments were performed as described above using 100 nM of RGD-SAP or 1000 nM of CYS-SAP in the presence of 5000 nM of ACDCRGDCFCG peptide for 48 and 72 hours.
as §1, with “NGR-SAP, RGD-SAP, CgA-SAP, CYS-SAP, ATF-SAP” for “RGD-SAP”, “seed SAP” for “CYS-SAP”, “reader.” for “reader. Competitive experiments were performed as described above using 100 nM of RGD-SAP or 1000 nM of CYS-SAP in the presence of 5000 nM of ACDCRGDCFCG peptide for 48 and 72 hours.”

[6] = test system: normal fibroblasts; assay: Cell viability assay (MTT), normal fibroblasts; assay type: cell-based; conditions: 72 h
Experimental: as §1
as §1, with “NGR-SAP, RGD-SAP, CgA-SAP, CYS-SAP, ATF-SAP” for “RGD-SAP”, “seed SAP” for “CYS-SAP”, “reader.” for “reader. Competitive experiments were performed as described above using 100 nM of RGD-SAP or 1000 nM of CYS-SAP in the presence of 5000 nM of ACDCRGDCFCG peptide for 48 and 72 hours.”

[7] = Toxicity in the subcutaneous model (body weight, injection site, serum biochemical parameters); assay type: in vivo, C57BL/6 mice
Text: (§2) Studies on animal models were approved by the Institutional Animal Care and Use Committee (Institutional Animal Care and Use Committee, IACUC) and performed according to the prescribed guidelines. C57BL/6 female mice (7 weeks old, Charles River, Calco, Italy) were challenged with subcutaneous injection in the left flank of 3-5×10^5 MB49 living cells; 5 days later, 4-6 mice/group were intravenously administered with various doses of RGD-SAP or CYS-SAP diluted in sodium chloride (0.9%, i.v., 200 μl). Tumor growth was estimated by calculating the volume using the formula r1×r2×r3×4/3 π, where r1 and r2 are the longitudinal and lateral radii, and r3 is the thickness of tumors protruding from the surface of normal skin. Animals were euthanized when tumors reached 10 mm in diameter, became ulcerated or a 15% animal body weight loss was measured.
Blood samples were collected from the retroorbital plexus of anesthetized mice using 4% isoflurane at the end of each experiment or before animal sacrifice. Blood samples were left at room temperature for at least 30 min before being processed and then centrifuged (800×g, 10 min) for serum separation. Serum albumin, aspartate transaminase, alanine transaminase, creatinine and urea were determined by using an automated analyzer (ScilVet ABC plus and Idexx Procyte analyzers) according to the manufacturers' instructions. Standard controls were run before each determination.

[8] = test system: caspase 3 in 5637 and MDA-MB-468 cells; assay: Caspase 3 activation (western blot); assay type: cell-based, human; conditions: 30 nM, 48 and 72 h
Experimental: Cells were washed twice with cold PBS, collected by scraping and centrifuged 5 min at 300 g. Cells were lysed for 30 min on ice in ice-cold buffer (50 mM Tris-HCl, pH 7.5, containing 150 mM NaCl, 2 mM NaF, 1 mM EDTA, 1 mM EGTA, 1 mM Na3VO4, 1 mM PMSF, 75 mU/ml aprotinin (Sigma-Aldrich), 1% TritonX-100 and a proteinase inhibitor Cocktail® (Sigma-Aldrich). Cell lysates were centrifuged at 10000×g at 4° C. for 10 min and the supernatants were recovered and quantified for total protein content. Equal amounts of cell protein extracts were separated by SDS-PAGE under reducing conditions unless stated otherwise. For western blot analysis, proteins were transferred onto a nitrocellulose membrane, incubated with 5% non-fat powdered milk in TBS-T (0.5% Tween-20) for 1 hour and then with the following antibodies: anti-saporin anti-serum (rabbit, 1:5000), anti-caspase 3 (rabbit, 1:2000, clone E87, Abcam), anti-beta actin (mouse, 1:10000, clone AC-15, Sigma-Aldrich). The antibody binding was detected using a secondary horseradish peroxidase conjugated antibodies (donkey anti-mouse/rabbit IgG HRP-linked, GE Healthcare) and an enhanced chemiluminescent (ECL, Merck Millipore).
To induce caspase 3 activation, cells were treated with 30 nM RGD-SAP or 2 mM DTT for 48 and 72 hours.

[9] = test system: subcutaneous MB49 tumors; assay: Subcutaneous syngeneic bladder cancer mouse model; assay type: in vivo, C57BL/6 mice
Text: as §2

[10] = test system: 5637 bladder cancer cells; assay: MTT competition experiment with free RGD-4C peptide; assay type: cell-based, human; conditions: 0.1 μM RGD-SAP or 1 μM CYS-SAP, 5 μM peptide, 48 and 72 h
Experimental: as §1

Chain of αvβ3 integrin (P06756 31-1048): as the sequence (P06756 31-1048) above
Chain of αvβ3 integrin (P05106 27-788): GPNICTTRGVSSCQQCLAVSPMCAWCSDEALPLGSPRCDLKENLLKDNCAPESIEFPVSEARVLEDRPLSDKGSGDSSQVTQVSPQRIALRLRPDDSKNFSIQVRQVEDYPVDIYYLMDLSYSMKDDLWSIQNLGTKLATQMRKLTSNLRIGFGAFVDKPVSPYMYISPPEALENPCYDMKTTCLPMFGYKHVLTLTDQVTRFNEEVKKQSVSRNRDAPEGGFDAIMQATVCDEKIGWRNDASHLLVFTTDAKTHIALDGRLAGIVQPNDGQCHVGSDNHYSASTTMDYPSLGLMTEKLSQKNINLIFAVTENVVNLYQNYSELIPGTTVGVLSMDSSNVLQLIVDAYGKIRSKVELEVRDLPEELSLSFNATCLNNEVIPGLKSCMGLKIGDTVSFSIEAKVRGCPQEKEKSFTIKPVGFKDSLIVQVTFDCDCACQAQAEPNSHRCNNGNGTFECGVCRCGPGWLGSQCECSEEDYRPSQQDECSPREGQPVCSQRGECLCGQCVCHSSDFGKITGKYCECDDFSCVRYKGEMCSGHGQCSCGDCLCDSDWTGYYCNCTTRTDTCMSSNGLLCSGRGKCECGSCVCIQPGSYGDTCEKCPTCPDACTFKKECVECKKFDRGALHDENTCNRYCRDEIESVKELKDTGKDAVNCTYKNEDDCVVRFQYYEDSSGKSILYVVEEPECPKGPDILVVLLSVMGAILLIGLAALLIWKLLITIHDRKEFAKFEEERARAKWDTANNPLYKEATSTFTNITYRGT
Chain of αvβ6 integrin (P06756 31-1048): as the sequence (P06756 31-1048) above
Chain of αvβ6 integrin (P18564 22-788): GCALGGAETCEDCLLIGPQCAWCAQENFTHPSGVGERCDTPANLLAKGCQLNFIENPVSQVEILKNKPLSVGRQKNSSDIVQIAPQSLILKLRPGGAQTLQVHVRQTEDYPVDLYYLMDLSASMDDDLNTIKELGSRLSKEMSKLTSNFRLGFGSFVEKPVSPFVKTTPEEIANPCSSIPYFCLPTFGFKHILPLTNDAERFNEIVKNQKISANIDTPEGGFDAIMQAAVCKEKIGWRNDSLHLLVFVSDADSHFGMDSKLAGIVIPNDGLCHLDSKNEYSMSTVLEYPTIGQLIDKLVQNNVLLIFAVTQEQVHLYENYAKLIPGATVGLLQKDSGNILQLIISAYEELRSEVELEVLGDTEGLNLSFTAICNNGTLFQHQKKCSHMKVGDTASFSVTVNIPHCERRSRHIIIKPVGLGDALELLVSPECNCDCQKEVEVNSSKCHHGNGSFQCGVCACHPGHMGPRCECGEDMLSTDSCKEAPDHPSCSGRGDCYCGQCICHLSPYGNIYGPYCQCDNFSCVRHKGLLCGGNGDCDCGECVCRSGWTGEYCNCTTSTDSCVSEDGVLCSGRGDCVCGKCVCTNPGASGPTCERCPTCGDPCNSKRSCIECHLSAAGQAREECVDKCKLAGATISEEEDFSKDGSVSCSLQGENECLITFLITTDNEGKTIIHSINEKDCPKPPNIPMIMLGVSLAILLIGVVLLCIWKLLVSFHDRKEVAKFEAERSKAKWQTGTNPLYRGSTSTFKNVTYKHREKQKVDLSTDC

Molecule	affinity value [1]	affinity value [2]	affinity value [3]	affinity value [4]	cytotoxic effect compared to CYS-SAP ([5]; MTT, 72 h, all cancer cells)	sensitivity of U87 cells compared with the other cell lines ([5]; U87, highest amount of αvβ3)	cytotoxic effect compared to CYS-SAP [6]	serum AST and CHE versus vehicle ([7]; 1 mg/kg)	body weight ([7]; 1 mg/kg i.v., day 19)	injection site reaction ([7]; 1 mg/kg i.v., tails)	systemic toxicity (liver and kidney serum parameters) ([7]; 0.25-1 mg/kg)	body weight ([7]; 0.75 and 0.5 mg/kg i.v., days 5, 10, 15)	caspase 3 activation [8]	effect on tumor growth ([9]; 0.25 mg/kg i.v., days 5, 10, 15)	effect on tumor growth ([9]; 0.5 mg/kg i.v., days 5, 10, 15)	effect on tumor growth ([9]; 0.75 mg/kg i.v., days 5, 10, 15)	survival, hazard ratio versus vehicle ([9]; 0.75 mg/kg, Mantel-Cox log-rank, 95% CI 1.19-23.10)	complete tumor eradication ([9]; 1 mg/kg i.v., end of experiment day 19, n=4)	effect on tumor growth ([9]; 1 mg/kg i.v., three times every five days from day 5)	effect of excess free RGD-4C peptide on cytotoxic activity [10]
RGD-4C: ACDCRGDCFCG peptide (SEQ ID NO: 2), an αv-integrin ligand	8.3 nM	244 nM	380 nM	46 nM	–	–	–	–	–	–	–	–	–	–	–	–	–	–	–	–
RGD-SAP: RGD-4C (ACDCRGDCFCG) fused via GGSSRSS linker to N-terminus of saporin, C-terminal VDK and 6xHis tag; SEQ ID NO: 6 (protein) ACDCRGDCFCGGGSSRSSVTSITLDLVNPTAGQYSSFVDKIRNNVKDPNLKYGGTDIAVIGPPSKEKFLRINFQSSRGTVSLGLKRDNLYVVAYLAMDNTNVNRAYYFKSEITSAELTALFPEATTANQKALEYTEDYQSIEKNAQITQGDKSRKELGLGIDLLLTFMEAVNKKARVVKNEARFLLIAIQMTAEVARFRYIQNLVTKNFPNKFDSDNKVIQFEVSWRKISTAIYGDAKNGVFNKDYDFGFGKVRQVKDLQMGLLMYLGKPKVDKHHHHHH	–	–	–	–	stronger cytotoxic effect	most sensitive	but not with normal fibroblasts	significantly higher values	loss of body weight	severe necrosis in the tails	dose dependent and apparent only with the highest dose used	without causing loss of body weight	caspase 3 activation was detectable as cleaved form	but not 0.25 mg/kg	significant delay of tumor growth	significant delay of tumor growth	5.25	1 tumor undetectable and complete eradication in one mouse	marked reduction of the tumor volume in all mice	significantly decreased the activity
